Tests used:
[1] = system: HeLa Kyoto; assay: solubility in G1/S (NP-40 vs SDS abundance) (log2 ratio); higher = more soluble; details: cell cycle stage: G1/S
[2] = system: HeLa Kyoto; assay: thermal stability score vs G1/S (z-score of summed log2 fold changes over temperatures); higher = more thermally stable than in G1/S
[3] = system: HeLa Kyoto; assay: solubility change mitosis vs G1/S (difference of NP-40 vs SDS log2 ratios) (log2 ratio difference); higher = more soluble in mitosis
[4] = system: HeLa Kyoto; assay: melting temperature (median over replicates), in situ; higher = more thermally stable
[5] = cell cycle stage: early G1 (4.5 h after nocodazole release)
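Throughout, for melting temperature (median over replicates), in situ: HeLa Kyoto cells synchronized by double thymidine or nocodazole block, proteins quantified by TMT10plex mass spectrometry, three independent biological replicates.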
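Throughout, for solubility change mitosis vs G1/S (difference of NP-40 vs SDS log2 ratios): synchronized HeLa Kyoto cells (double thymidine block for G1/S, nocodazole release for mitosis), protein amounts in NP-40 versus SDS lysates quantified by mass spectrometry, three biological replicates.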
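Throughout, for solubility in G1/S (NP-40 vs SDS abundance): HeLa Kyoto cells arrested at G1/S by double thymidine block, proteins quantified by TMT10plex mass spectrometry in mild NP-40 versus SDS extracts, three biological replicates.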
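Throughout, for thermal stability score vs G1/S (z-score of summed log2 fold changes over temperatures): synchronized HeLa Kyoto cells, proteins quantified by TMT10plex mass spectrometry, three biological replicates, mitosis taken 0.5 h after nocodazole release, G1/S directly after double thymidine block.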

Chain of STAT2 (chain, as listed by the source): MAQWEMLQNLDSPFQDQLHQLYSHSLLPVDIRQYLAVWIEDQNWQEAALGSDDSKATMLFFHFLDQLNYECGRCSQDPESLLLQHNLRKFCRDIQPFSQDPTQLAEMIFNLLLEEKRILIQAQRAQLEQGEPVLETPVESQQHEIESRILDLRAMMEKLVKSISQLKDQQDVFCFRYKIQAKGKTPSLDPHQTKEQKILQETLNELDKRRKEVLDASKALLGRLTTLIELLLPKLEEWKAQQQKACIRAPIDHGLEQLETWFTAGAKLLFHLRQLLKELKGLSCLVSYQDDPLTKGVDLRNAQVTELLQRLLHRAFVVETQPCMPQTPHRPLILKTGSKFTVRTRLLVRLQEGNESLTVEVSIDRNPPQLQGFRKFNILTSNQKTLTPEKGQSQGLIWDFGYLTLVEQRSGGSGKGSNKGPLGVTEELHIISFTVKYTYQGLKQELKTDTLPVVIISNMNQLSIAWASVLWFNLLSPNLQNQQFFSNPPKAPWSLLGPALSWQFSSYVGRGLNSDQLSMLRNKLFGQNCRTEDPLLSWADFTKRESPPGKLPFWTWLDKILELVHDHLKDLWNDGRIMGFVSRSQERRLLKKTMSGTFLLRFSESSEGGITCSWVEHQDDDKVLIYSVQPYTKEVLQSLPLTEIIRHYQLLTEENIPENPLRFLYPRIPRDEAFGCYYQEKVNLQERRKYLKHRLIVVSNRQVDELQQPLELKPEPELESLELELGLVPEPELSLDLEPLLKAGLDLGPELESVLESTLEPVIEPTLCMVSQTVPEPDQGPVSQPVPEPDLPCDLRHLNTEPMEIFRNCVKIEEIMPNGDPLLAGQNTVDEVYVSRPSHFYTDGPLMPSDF
Chain of DGKA (chain, as listed by the source): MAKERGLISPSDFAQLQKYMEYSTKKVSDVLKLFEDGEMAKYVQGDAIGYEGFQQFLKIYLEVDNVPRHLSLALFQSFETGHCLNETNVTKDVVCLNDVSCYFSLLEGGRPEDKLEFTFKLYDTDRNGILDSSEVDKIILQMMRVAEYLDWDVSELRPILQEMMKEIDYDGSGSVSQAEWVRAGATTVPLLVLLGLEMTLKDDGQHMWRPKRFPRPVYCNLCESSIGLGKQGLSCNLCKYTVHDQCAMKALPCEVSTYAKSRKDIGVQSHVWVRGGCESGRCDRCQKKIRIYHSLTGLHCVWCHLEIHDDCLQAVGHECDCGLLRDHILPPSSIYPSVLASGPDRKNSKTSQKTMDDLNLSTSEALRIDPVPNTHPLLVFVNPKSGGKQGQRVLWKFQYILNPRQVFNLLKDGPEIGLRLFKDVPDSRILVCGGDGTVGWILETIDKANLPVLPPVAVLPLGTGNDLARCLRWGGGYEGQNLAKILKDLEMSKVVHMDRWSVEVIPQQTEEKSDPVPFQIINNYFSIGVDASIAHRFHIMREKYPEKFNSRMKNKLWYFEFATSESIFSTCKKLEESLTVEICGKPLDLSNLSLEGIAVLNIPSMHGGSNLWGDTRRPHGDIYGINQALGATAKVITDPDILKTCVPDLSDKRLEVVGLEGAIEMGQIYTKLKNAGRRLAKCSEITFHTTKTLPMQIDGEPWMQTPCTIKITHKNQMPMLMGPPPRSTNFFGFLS
Chain of DENND4A (chain, as listed by the source): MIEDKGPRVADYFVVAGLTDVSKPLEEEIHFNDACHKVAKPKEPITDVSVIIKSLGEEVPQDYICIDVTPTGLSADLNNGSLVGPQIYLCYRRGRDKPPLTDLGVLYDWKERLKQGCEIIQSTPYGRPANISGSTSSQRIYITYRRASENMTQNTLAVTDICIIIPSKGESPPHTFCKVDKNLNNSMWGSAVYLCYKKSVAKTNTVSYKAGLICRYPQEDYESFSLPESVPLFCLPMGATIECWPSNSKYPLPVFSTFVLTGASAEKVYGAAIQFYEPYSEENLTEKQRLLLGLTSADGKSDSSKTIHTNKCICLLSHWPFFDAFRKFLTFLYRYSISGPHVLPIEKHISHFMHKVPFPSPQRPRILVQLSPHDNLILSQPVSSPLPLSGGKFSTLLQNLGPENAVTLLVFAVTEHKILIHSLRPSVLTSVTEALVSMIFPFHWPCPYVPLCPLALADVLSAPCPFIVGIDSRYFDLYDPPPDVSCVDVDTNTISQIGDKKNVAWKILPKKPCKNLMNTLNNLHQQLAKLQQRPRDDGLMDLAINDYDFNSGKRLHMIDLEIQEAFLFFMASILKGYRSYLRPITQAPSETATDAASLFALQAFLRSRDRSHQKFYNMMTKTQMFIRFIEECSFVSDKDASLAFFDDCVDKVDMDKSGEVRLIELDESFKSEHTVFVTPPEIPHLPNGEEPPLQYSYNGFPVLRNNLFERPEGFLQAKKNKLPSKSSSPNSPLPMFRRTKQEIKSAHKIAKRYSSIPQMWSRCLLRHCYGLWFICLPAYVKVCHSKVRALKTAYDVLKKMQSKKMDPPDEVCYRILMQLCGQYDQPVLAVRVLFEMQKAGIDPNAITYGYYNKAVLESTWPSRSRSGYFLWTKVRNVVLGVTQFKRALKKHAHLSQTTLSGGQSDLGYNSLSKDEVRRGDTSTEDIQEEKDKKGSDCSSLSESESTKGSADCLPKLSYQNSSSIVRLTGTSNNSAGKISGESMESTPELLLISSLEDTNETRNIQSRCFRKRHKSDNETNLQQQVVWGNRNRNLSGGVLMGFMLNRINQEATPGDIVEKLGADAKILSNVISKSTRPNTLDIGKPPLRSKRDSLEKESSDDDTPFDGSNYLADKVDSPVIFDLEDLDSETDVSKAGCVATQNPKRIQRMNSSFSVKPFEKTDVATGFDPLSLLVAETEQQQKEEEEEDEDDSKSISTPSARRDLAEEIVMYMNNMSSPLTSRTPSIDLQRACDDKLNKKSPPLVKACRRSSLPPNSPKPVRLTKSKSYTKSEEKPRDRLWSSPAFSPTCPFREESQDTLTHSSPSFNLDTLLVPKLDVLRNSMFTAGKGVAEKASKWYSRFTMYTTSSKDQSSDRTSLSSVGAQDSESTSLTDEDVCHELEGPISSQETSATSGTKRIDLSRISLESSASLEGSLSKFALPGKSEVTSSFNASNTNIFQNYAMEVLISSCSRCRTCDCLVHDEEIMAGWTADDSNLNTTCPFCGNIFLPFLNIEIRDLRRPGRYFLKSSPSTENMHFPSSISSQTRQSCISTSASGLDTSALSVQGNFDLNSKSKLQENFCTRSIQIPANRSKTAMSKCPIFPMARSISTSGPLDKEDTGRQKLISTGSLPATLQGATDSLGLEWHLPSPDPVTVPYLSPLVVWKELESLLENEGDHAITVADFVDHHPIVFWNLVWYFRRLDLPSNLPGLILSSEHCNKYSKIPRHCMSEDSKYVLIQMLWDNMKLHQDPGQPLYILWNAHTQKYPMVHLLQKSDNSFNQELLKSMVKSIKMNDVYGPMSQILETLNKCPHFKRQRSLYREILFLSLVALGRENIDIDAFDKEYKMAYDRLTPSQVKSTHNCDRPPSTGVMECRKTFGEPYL
Chain of TAF6 (chain, as listed by the source): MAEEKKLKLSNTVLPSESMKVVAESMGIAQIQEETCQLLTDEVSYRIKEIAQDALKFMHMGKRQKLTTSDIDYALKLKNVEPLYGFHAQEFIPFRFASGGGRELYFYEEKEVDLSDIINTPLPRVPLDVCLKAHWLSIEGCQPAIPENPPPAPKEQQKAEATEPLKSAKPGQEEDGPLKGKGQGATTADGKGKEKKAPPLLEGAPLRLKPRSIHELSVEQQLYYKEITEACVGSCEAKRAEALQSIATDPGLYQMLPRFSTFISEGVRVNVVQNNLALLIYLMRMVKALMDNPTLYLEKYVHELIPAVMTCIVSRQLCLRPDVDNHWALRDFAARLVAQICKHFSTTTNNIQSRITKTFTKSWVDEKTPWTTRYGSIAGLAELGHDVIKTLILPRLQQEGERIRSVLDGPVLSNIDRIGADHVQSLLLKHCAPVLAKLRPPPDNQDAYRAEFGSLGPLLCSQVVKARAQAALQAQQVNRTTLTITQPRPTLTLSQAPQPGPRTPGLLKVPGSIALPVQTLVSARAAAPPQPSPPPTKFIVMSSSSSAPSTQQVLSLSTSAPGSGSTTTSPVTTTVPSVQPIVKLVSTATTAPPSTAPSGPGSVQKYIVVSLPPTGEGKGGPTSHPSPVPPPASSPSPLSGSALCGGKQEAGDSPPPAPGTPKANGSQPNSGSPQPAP

| Substance | solubility in G1/S (log2) [1] | thermal stability score [2, 5] | thermal stability score ([2]; cell cycle stage: mitosis) | solubility change mitosis (log2) [3] | melting temperature ([4]; cell cycle stage: G1/S) | melting temperature ([4]; cell cycle stage: mitosis) |
| --- | --- | --- | --- | --- | --- | --- |
| DENND4A | 0.0407 | -0.12 | -0.608 | -0.246 |  |  |
| DGKA | -0.0832 | 0.0904 | 0.484 | -0.157 |  |  |
| ESPL1 | -0.00542 | 0.555 | 2.16 | -0.204 |  |  |
| LAMA3 | -0.331 | -0.604 | -0.145 | 0.0773 |  |  |
| MTTSSIRRQMKNIVNNYSEAEIKVREATSNDPWGPSSSLMTEIADLTYNVVAFSEIMSMVWKRLNDHGKNWRHVYKALTLLDYLIKTGSERVAQQCRENIFAIQTLKDFQYIDRDGKDQGINVREKSKQLVALLKDEERLKAERAQALKTKERMAQVATGMGSNQITFGRGSSQPNLSTSHSEQEYGKAGGSPASYHGSPEASLCPQHRTGAPLGQSEELQPLSQRHPFLPHLGLASRPNGDWSQPCLTCDRAARATSPRVSSELEQARPQTSGEEELQLQLALAMSREVAEQEERLRRGDDLRLQMALEESRRDTVKIPKKKEHGSLPQQTTLLDLMDALPSSGPAAQKAEPWGPSASTNQTNPWGGPAAPASTSDPWPSFGTKPAASIDPWGVPTGATVQSVPKNSDPWAASQQPASSAGKRASDAWGAVSTTKPVSVSGSFELFSNLNGTIKDDFSEFDNLRTSKKTAESVTSLPSQNNGTTSPDPFESQPLTVASSKPSSARKTPESFLGPNAALVNLDSLVTRPAPPAQSLNPFLAPGAPATSAPVNPFQVNQPQPLTLNQLRGSPVLGTSTSFGPGPGVESMAVASMTSAAPQPALGATGSSLTPLGPAMMNMVGSVGIPPSAAQATGTTNPFLL [EPN2] | 0.656 |  |  | -0.0178 | 54.9 °C | 54.6 °C |
| MVAYWRQAGLSYIRYSQICAKAVRDALKTEFKANAEKTSGSNVKIVKVKKE [ATP5E] | -0.106 |  |  | 0.368 | 53.2 °C | 51.8 °C |
| MVMYARKQQRLSDGCHDRRGDSQPYQALKYSSKSHPSSGDHRHEKMRDAGDPSPPNKMLRRSDSPENKYSDSTGHSKAKNVHTHRVRERDGGTSYSPQENSHNHSALHSSNSHSSNPSNNPSKTSDAPYDSADDWSEHISSSGKKYYYNCRTEVSQWEKPKEWLEREQRQKEANKMAVNSFPKDRDYRREVMQATATSGFASGMEDKHSSDASSLLPQNILSQTSRHNDRDYRLPRAETHSSSTPVQHPIKPVVHPTATPSTVPSSPFTLQSDHQPKKSFDANGASTLSKLPTPTSSVPAQKTERKESTSGDKPVSHSCTTPSTSSASGLNPTSAPPTSASAVPVSPVPQSPIPPLLQDPNLLRQLLPALQATLQLNNSNVDISKINEVLTAAVTQASLQSIIHKFLTAGPSAFNITSLISQAAQLSTQAQPSNQSPMSLTSDASSPRSYVSPRISTPQTNTVPIKPLISTPPVSSQPKVSTPVVKQGPVSQSATQQPVTADKQQGHEPVSPRSLQRSSSQRSPSPGPNHTSNSSNASNATVVPQNSSARSTCSLTPALAAHFSENLIKHVQGWPADHAEKQASRLREEAHNMGTIHMSEICTELKNLRSLVRVCEIQATLREQRILFLRQQIKELEKLKNQNSFMV [WAC] | 0.525 |  |  | 0.139 | 46.5 °C | 49.9 °C |
| MVNPGSSSQPPPVTAGSLSWKRCAGCGGKIADRFLLYAMDSYWHSRCLKCSCCQAQLGDIGTSCYTKSGMILCRNDYIRLFGNSGACSACGQSIPASELVMRAQGNVYHLKCFTCSTCRNRLVPGDRFHYINGSLFCEHDRPTALINGHLNSLQSNPLLPDQKVC [LMO4] | -0.938 |  |  | -0.0181 | 52.8 °C |  |
| MWHSVGLTLLVFVATLLIVLLLMVCGWYFVWHLFLSKFKFLRELVGDTGSQEGDHEPSGSETEEDTSSSPHRIRSARQRRAPADEGHRPLT [SMIM13] | -0.0724 |  |  | -0.138 | 55.5 °C |  |
| STAT2 | -0.0132 |  |  | -0.0626 | 49.1 °C | 50.9 °C |
| TAF6 | 0.14 |  |  | 0.046 | 49.1 °C | 49.6 °C |
| TATDN3 | 0.608 |  |  | -0.0652 | 56.5 °C | 56.3 °C |
| ZNF318 | -0.136 |  |  | -0.0151 | 46.2 °C | 49.2 °C |

Source: the supplement of paper PMC5998384
